Results taken from paper PMC12102759 (2025).

B1: AXIN1 peptide 237-252 (Axin-1), 16-mer library wild type / PP2A B56 (PPP2R5A B56 domain, residues 1-486) (parent complex)
chain 1: YLPTLNEDEEWKADQD
chain 2: not shown

Variants of: B1
Assay: proteomic peptide phage display deep mutational scan (ProP-PD DMS): M13 P8 16-mer library selected against immobilised GST-tagged bait for four days (rounds), NGS of the eluted pools per day and pseudo-replica; bait immobilised on MaxiSorp plates (10 µg), library pre-cleared on GST, 2 h binding at 4 °C, five washes; one round per day, days 1-4; value from days 2 and 3

Variant | screen value
chain 1 Q15K | 0.000314 average fractional NGS count over selection days 2 and 3 (reads of this peptide / all reads for the bait, averaged over …
chain 1 Q15G | 0.00117 average fractional NGS count over selection days 2 and 3 (reads of this peptide / all reads for the bait, averaged over …
chain 1 Q15W | 0.00273 average fractional NGS count over selection days 2 and 3 (reads of this peptide / all reads for the bait, averaged over …
chain 1 Q15P | 0.000686 average fractional NGS count over selection days 2 and 3 (reads of this peptide / all reads for the bait, averaged over …
chain 1 Q15S | 0.00176 average fractional NGS count over selection days 2 and 3 (reads of this peptide / all reads for the bait, averaged over …
chain 1 Q15H | 0.0369 average fractional NGS count over selection days 2 and 3 (reads of this peptide / all reads for the bait, averaged over …
chain 1 Q15M | 0.00211 average fractional NGS count over selection days 2 and 3 (reads of this peptide / all reads for the bait, averaged over …
chain 1 Q15N | 0.00887 average fractional NGS count over selection days 2 and 3 (reads of this peptide / all reads for the bait, averaged over …
chain 1 Q15T | 0.0102 average fractional NGS count over selection days 2 and 3 (reads of this peptide / all reads for the bait, averaged over …
chain 1 Q15F | 0.00274 average fractional NGS count over selection days 2 and 3 (reads of this peptide / all reads for the bait, averaged over …
chain 1 Q15D | 0.000993 average fractional NGS count over selection days 2 and 3 (reads of this peptide / all reads for the bait, averaged over …
chain 1 Q15L | 0.00865 average fractional NGS count over selection days 2 and 3 (reads of this peptide / all reads for the bait, averaged over …
chain 1 Q15R | 0.000634 average fractional NGS count over selection days 2 and 3 (reads of this peptide / all reads for the bait, averaged over …
chain 1 Q15E | 0.00341 average fractional NGS count over selection days 2 and 3 (reads of this peptide / all reads for the bait, averaged over …
chain 1 Q15A | 0.00159 average fractional NGS count over selection days 2 and 3 (reads of this peptide / all reads for the bait, averaged over …
chain 1 Q15I | 0.00307 average fractional NGS count over selection days 2 and 3 (reads of this peptide / all reads for the bait, averaged over …
chain 1 Q15V | 0.000515 average fractional NGS count over selection days 2 and 3 (reads of this peptide / all reads for the bait, averaged over …
chain 1 D8L | 0.00362 average fractional NGS count over selection days 2 and 3 (reads of this peptide / all reads for the bait, averaged over …
chain 1 D8Y | 0.00257 average fractional NGS count over selection days 2 and 3 (reads of this peptide / all reads for the bait, averaged over …
chain 1 D8F | 0.000675 average fractional NGS count over selection days 2 and 3 (reads of this peptide / all reads for the bait, averaged over …
chain 1 D8A | 0.000509 average fractional NGS count over selection days 2 and 3 (reads of this peptide / all reads for the bait, averaged over …
chain 1 D8G | 0.0025 average fractional NGS count over selection days 2 and 3 (reads of this peptide / all reads for the bait, averaged over …
chain 1 D8V | 0.000175 average fractional NGS count over selection days 2 and 3 (reads of this peptide / all reads for the bait, averaged over …
chain 1 D8K | 0.00103 average fractional NGS count over selection days 2 and 3 (reads of this peptide / all reads for the bait, averaged over …
chain 1 D8E | 0.000771 average fractional NGS count over selection days 2 and 3 (reads of this peptide / all reads for the bait, averaged over …

Variant | screen value
chain 1 D8R | 0.000182 average fractional NGS count over selection days 2 and 3 (reads of this peptide / all reads for the bait, averaged over …
chain 1 D8Q | 0.00238 average fractional NGS count over selection days 2 and 3 (reads of this peptide / all reads for the bait, averaged over …
chain 1 D8S | 0.0116 average fractional NGS count over selection days 2 and 3 (reads of this peptide / all reads for the bait, averaged over …
chain 1 D8W | 0.000322 average fractional NGS count over selection days 2 and 3 (reads of this peptide / all reads for the bait, averaged over …
chain 1 D8I | 0.000369 average fractional NGS count over selection days 2 and 3 (reads of this peptide / all reads for the bait, averaged over …
chain 1 D8H | 0.00852 average fractional NGS count over selection days 2 and 3 (reads of this peptide / all reads for the bait, averaged over …
chain 1 D8T | 0.000632 average fractional NGS count over selection days 2 and 3 (reads of this peptide / all reads for the bait, averaged over …
chain 1 D8N | 0.000367 average fractional NGS count over selection days 2 and 3 (reads of this peptide / all reads for the bait, averaged over …
chain 1 D14T | 0.00142 average fractional NGS count over selection days 2 and 3 (reads of this peptide / all reads for the bait, averaged over …
chain 1 D14K | 0.000793 average fractional NGS count over selection days 2 and 3 (reads of this peptide / all reads for the bait, averaged over …
chain 1 D14L | 0.00106 average fractional NGS count over selection days 2 and 3 (reads of this peptide / all reads for the bait, averaged over …
chain 1 D14E | 0.00475 average fractional NGS count over selection days 2 and 3 (reads of this peptide / all reads for the bait, averaged over …
chain 1 D14S | 0.00823 average fractional NGS count over selection days 2 and 3 (reads of this peptide / all reads for the bait, averaged over …
chain 1 D14Y | 0.00582 average fractional NGS count over selection days 2 and 3 (reads of this peptide / all reads for the bait, averaged over …
chain 1 D14P | 0.00181 average fractional NGS count over selection days 2 and 3 (reads of this peptide / all reads for the bait, averaged over …
chain 1 D14A | 0.00375 average fractional NGS count over selection days 2 and 3 (reads of this peptide / all reads for the bait, averaged over …
chain 1 D14F | 0.0121 average fractional NGS count over selection days 2 and 3 (reads of this peptide / all reads for the bait, averaged over …
chain 1 D14W | 0.0112 average fractional NGS count over selection days 2 and 3 (reads of this peptide / all reads for the bait, averaged over …
chain 1 D14H | 0.038 average fractional NGS count over selection days 2 and 3 (reads of this peptide / all reads for the bait, averaged over …
chain 1 D14Q | 0.00055 average fractional NGS count over selection days 2 and 3 (reads of this peptide / all reads for the bait, averaged over …
chain 1 D14G | 0.00106 average fractional NGS count over selection days 2 and 3 (reads of this peptide / all reads for the bait, averaged over …
chain 1 P3E | 0.000951 average fractional NGS count over selection days 2 and 3 (reads of this peptide / all reads for the bait, averaged over …
chain 1 P3H | 0.00026 average fractional NGS count over selection days 2 and 3 (reads of this peptide / all reads for the bait, averaged over …
chain 1 P3A | 0.000353 average fractional NGS count over selection days 2 and 3 (reads of this peptide / all reads for the bait, averaged over …
chain 1 P3S | 0.00024 average fractional NGS count over selection days 2 and 3 (reads of this peptide / all reads for the bait, averaged over …

Variant | screen value
chain 1 P3Q | 0.000844 average fractional NGS count over selection days 2 and 3 (reads of this peptide / all reads for the bait, averaged over …
chain 1 P3Y | 0.000178 average fractional NGS count over selection days 2 and 3 (reads of this peptide / all reads for the bait, averaged over …
chain 1 Y1P | 0.000164 average fractional NGS count over selection days 2 and 3 (reads of this peptide / all reads for the bait, averaged over …
chain 1 Y1I | 0.00029 average fractional NGS count over selection days 2 and 3 (reads of this peptide / all reads for the bait, averaged over …
chain 1 Y1Q | 0.000381 average fractional NGS count over selection days 2 and 3 (reads of this peptide / all reads for the bait, averaged over …
chain 1 Y1S | 0.000305 average fractional NGS count over selection days 2 and 3 (reads of this peptide / all reads for the bait, averaged over …
chain 1 Y1N | 0.000299 average fractional NGS count over selection days 2 and 3 (reads of this peptide / all reads for the bait, averaged over …
chain 1 Y1L | 0.00157 average fractional NGS count over selection days 2 and 3 (reads of this peptide / all reads for the bait, averaged over …
chain 1 Y1W | 0.000316 average fractional NGS count over selection days 2 and 3 (reads of this peptide / all reads for the bait, averaged over …
chain 1 Y1T | 0.00199 average fractional NGS count over selection days 2 and 3 (reads of this peptide / all reads for the bait, averaged over …
chain 1 Y1H | 0.000114 average fractional NGS count over selection days 2 and 3 (reads of this peptide / all reads for the bait, averaged over …
chain 1 Y1R | 0.000195 average fractional NGS count over selection days 2 and 3 (reads of this peptide / all reads for the bait, averaged over …
chain 1 Y1M | 0.000646 average fractional NGS count over selection days 2 and 3 (reads of this peptide / all reads for the bait, averaged over …
chain 1 Y1K | 0.000785 average fractional NGS count over selection days 2 and 3 (reads of this peptide / all reads for the bait, averaged over …
chain 1 Y1V | 0.000255 average fractional NGS count over selection days 2 and 3 (reads of this peptide / all reads for the bait, averaged over …
chain 1 Y1A | 0.000622 average fractional NGS count over selection days 2 and 3 (reads of this peptide / all reads for the bait, averaged over …
chain 1 A13S | 0.0021 average fractional NGS count over selection days 2 and 3 (reads of this peptide / all reads for the bait, averaged over …
chain 1 A13V | 0.000342 average fractional NGS count over selection days 2 and 3 (reads of this peptide / all reads for the bait, averaged over …
chain 1 A13Y | 0.00559 average fractional NGS count over selection days 2 and 3 (reads of this peptide / all reads for the bait, averaged over …
chain 1 A13W | 0.00128 average fractional NGS count over selection days 2 and 3 (reads of this peptide / all reads for the bait, averaged over …
chain 1 A13M | 0.000333 average fractional NGS count over selection days 2 and 3 (reads of this peptide / all reads for the bait, averaged over …
chain 1 A13H | 0.00442 average fractional NGS count over selection days 2 and 3 (reads of this peptide / all reads for the bait, averaged over …
chain 1 A13Q | 0.000245 average fractional NGS count over selection days 2 and 3 (reads of this peptide / all reads for the bait, averaged over …
chain 1 A13G | 0.000231 average fractional NGS count over selection days 2 and 3 (reads of this peptide / all reads for the bait, averaged over …
chain 1 A13P | 0.00194 average fractional NGS count over selection days 2 and 3 (reads of this peptide / all reads for the bait, averaged over …
